In publication PMC6539346, “Molecular and Structural Basis of the Proteasome α Subunit Assembly Mechanism Mediated by the Proteasome-Assembling Chaperone PAC3-PAC4 Heterodimer” (International Journal of Molecular Sciences, 2019):

Target: the molecule itself
Experiment: crystal structure; non-tagged PAC3 homodimer, 8.0 mg/mL in 20 mM Tris-HCl pH 7.5, 150 mM NaCl; crystals from 30% PEG2000 monomethyl ether, 0.1 M potassium thiocyanate, 20 °C; space group P3(1)21, 0.96 Å

B1: human PAC3 homodimer, non-tagged (natural protein)
chain: MEDTPLVISKQKTEVVCGVPTQVVCTAFSSHILVVVTQFGKMGTLVSLEPSSVASDVSKPVLTTKVLLGQDEPLIHVFAKNLVAFVSQEAGNRAVLLAVAVKDKSMEGLKALREVIRVCQVW
notes: human proteasome-assembling chaperone PAC3; source: E. coli BL21-CodonPlus (DE3)-RIL, purified
- binding result: binds
